According to patent US20240050568A1 (NANJING IASO BIOTECHNOLOGY, published 2024):

Assays:
[1] = biological target: T1, CD5 antigen (Acro, CD5-H52H5) (UniProt P06127 25-371); experiment: BLI (Octet), IgG loaded on the biosensor, CD5 antigen 100 to 1.563 nM, 1:1 model
T1 construct: Bought protein
T1 sequence (looked up): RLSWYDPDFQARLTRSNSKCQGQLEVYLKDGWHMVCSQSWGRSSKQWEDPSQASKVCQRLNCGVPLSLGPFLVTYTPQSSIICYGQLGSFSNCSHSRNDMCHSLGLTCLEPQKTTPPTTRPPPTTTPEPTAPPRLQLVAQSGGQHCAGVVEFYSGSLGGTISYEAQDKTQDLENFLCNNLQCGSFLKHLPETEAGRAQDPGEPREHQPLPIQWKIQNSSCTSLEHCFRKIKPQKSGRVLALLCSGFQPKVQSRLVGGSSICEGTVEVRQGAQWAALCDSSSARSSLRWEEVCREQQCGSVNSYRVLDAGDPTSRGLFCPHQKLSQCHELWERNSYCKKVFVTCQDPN

[2] = biological target: T2, human CD5 expressed on cells (human, UniProt P06127 25-495); experiment: cell-based or functional assay
T2 sequence (looked up): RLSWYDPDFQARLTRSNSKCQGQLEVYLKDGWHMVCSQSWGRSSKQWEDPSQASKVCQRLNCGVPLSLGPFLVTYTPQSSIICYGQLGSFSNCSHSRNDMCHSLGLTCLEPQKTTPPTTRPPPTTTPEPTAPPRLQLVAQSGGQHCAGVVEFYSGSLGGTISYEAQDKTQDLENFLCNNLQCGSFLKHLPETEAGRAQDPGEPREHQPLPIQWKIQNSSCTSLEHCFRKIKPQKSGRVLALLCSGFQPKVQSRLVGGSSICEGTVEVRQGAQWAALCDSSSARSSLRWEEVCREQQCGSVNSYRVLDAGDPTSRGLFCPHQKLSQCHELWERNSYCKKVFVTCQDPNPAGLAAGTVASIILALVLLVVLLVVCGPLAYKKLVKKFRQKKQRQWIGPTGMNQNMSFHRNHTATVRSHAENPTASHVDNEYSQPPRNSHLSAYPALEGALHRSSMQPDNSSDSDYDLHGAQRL

[3] = biological target: T3, fluorescent dye-labeled human CD5 protein (human, UniProt P06127 25-371, limits assumed, fluorescent dye label (dye and sites not stated)); experiment: flow cytometry: CT125A cells with graded fluorescent human CD5 protein; average of three experiments
T3 construct: also called human CD5 antigen
T3 sequence (looked up): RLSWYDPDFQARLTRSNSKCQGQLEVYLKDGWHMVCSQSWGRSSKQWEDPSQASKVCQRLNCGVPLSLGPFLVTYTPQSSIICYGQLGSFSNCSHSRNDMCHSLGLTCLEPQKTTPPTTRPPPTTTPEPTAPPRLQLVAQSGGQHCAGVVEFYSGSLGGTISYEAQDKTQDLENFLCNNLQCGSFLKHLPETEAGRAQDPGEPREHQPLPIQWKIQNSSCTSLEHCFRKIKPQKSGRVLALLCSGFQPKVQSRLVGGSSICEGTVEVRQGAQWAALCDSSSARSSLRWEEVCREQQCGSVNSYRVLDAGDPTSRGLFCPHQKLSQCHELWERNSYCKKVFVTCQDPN
Description: (§1) The relationship between the percentage of the fluorescence-labeled CAR+positive cells and the concentration of CD5 protein was fitted by Graphpad Prism software to calculate the affinity EC50 constant. This experiment was completed by Shanghai IASO Biotherapeutics Co., Ltd., and a total of three independent experiments were repeated.

[4] = biological target: T3, fluorescent dye-labeled human CD5 …; experiment: flow cytometry: CT125A cells with graded fluorescent human CD5 protein, percent labelled CAR+ cells fitted; 1st time
Description: as §1

[5] = biological target: T3, fluorescent dye-labeled human CD5 …; experiment: flow cytometry: CT125A cells with graded fluorescent human CD5 protein, percent labelled CAR+ cells fitted; 3rd time
Description: as §1

[6] = biological target: T3, fluorescent dye-labeled human CD5 …; experiment: flow cytometry: CT125A cells with graded fluorescent human CD5 protein, percent labelled CAR+ cells fitted; 2nd time
Description: as §1

[7] = biological target: T2, human CD5 expressed on cells; experiment: flow cytometry on SUP-T1-Luc cells, percent positive cells fitted (called Kd in paragraph 233); 1st time
Procedure: (§2) The relationship between the percentage of fluorescence-labeled positive CD5⁺ target cells and different concentrations of CD5 tandem single-domain antibody was analyzed by fitting using Graphpad Prism software to calculate the EC50 constant. A total of three independent repetitions were performed in this experiment.

[8] = biological target: T2, human CD5 expressed on cells; experiment: flow cytometry on CCRF-CEM-Luc cells, percent positive cells fitted (called Kd in paragraph 233); 1st time
Procedure: as §2

[9] = biological target: T2, human CD5 expressed on cells; experiment: flow cytometry on JVM-2-Luc-CD5 cells, percent positive cells fitted (called Kd in paragraph 233); 2nd time
Procedure: as §2

[10] = biological target: T2, human CD5 expressed on cells; experiment: flow cytometry on JVM-2-Luc-CD5 cells, percent positive cells fitted (called Kd in paragraph 233); 1st time
Procedure: as §2

[11] = biological target: T2, human CD5 expressed on cells; experiment: flow cytometry on CCRF-CEM-Luc cells, percent positive cells fitted (called Kd in paragraph 233); 2nd time
Procedure: as §2

[12] = biological target: T2, human CD5 expressed on cells; experiment: flow cytometry on SUP-T1-Luc cells, percent positive cells fitted (called Kd in paragraph 233); 3rd time
Procedure: as §2

[13] = biological target: T2, human CD5 expressed on cells; experiment: flow cytometry on CCRF-CEM-Luc cells, percent positive cells fitted (called Kd in paragraph 233); 3rd time
Procedure: as §2

[14] = biological target: T2, human CD5 expressed on cells; experiment: flow cytometry on MEC-1-CD5-Luc cells, percent positive cells fitted (called Kd in paragraph 233); 2nd time
Procedure: as §2

[15] = biological target: T2, human CD5 expressed on cells; experiment: flow cytometry on JVM-2-Luc-CD5 cells, percent positive cells fitted (called Kd in paragraph 233); 3rd time
Procedure: as §2

[16] = biological target: T2, human CD5 expressed on cells; experiment: flow cytometry on MEC-1-CD5-Luc cells, percent positive cells fitted (called Kd in paragraph 233); 3rd time
Procedure: as §2

[17] = biological target: T2, human CD5 expressed on cells; experiment: flow cytometry on MEC-1-CD5-Luc cells, percent positive cells fitted (called Kd in paragraph 233); 1st time
Procedure: as §2

[18] = biological target: T2, human CD5 expressed on cells; experiment: flow cytometry on MEC-1-CD5-Luc cells (called Kd in paragraph 233); average of three experiments
Procedure: as §2

[19] = biological target: T2, human CD5 expressed on cells; experiment: flow cytometry on JVM-2-Luc-CD5 cells (called Kd in paragraph 233); average of three experiments
Procedure: as §2

[20] = biological target: T2, human CD5 expressed on cells; experiment: flow cytometry on SUP-T1-Luc cells, percent positive cells fitted (called Kd in paragraph 233); 2nd time
Procedure: as §2

[21] = biological target: T2, human CD5 expressed on cells; experiment: flow cytometry on SUP-T1-Luc cells (called Kd in paragraph 233); average of three experiments
Procedure: as §2

[22] = biological target: T2, human CD5 expressed on cells; experiment: flow cytometry on CCRF-CEM-Luc cells (called Kd in paragraph 233); average of three experiments
Procedure: as §2

B1: FHVH3 (#61 IgG) (Fc fusion)
chain: QVQLVQSGAEVKKPGSSVKVSCKASGGTFSNYAISWVRQAPGQGLEWMGWISAYNGDTKYAQRLQGRVTMTTDTSTSTAYMELRNLRSDDTAVYYCARYESMSGQDIWGQGTLVTVSS
notes: also called #61 clone; anti-CD5 IgG; not shown: human IgG4 Fc
- Kd [1]: 3.96 nM
- koff [1]: 0.000288 s⁻¹
- kon [1]: 72800 M⁻¹ s⁻¹

B2: FHVH3VH1 CAR (other)
chain: QVQLVQSGAEVKKPGSSVKVSCKASGGTFSNYAISWVRQAPGQGLEWMGWISAYNGDTKYAQRLQGRVTMTTDTSTSTAYMELRNLRSDDTAVYYCARYESMSGQDIWGQGTLVTVSSGGGGSGGGGSGGGGSEVQLLESGGGLVQPGGSLRLSCAASGFTFSHSAMGWVRQAPGKGLEWVSSIYARGGYTYYADSVKGRFTISRDNSKNTLYLQMNSLRAEDTAVYYCARGYHLEYMVSQDVWGQGTLVTVSSFVPVFLPAKPTTTPAPRPPTPAPTIASQPLSLRPEACRPAAGGAVHTRGLDFACDIYIWAPLAGTCGVLLLSLVITLYCNHRNKRGRKKLLYIFKQPFMRPVQTTQEEDGCSCRFPEEEEGGCELRVKFSRSADAPAYQQGQNQLYNELNLGRREEYDVLDKRRGRDPEMGGKPRRKNPQEGLYNELQKDKMAEAYSEIGMKGERRRGKGHDGLYQGLSTATKDTYDALHMQALPPR
notes: Signal peptide left out; T2A remnant at the C-terminus not written; also called CT125A; CT125A injection
- cytotoxicity on CCRF-CEM-Luc cells, effector-target ratio 1:1 [2]: 95.6%
- cytotoxicity on CCRF-CEM-Luc cells, effector-target ratio 2:1 [2]: 96.9%
- cytotoxicity on JVM-2-Luc-CD5 cells, effector-to-target ratio 5:1 [2]: 96.4%
- cytotoxicity on JVM-2-Luc-CD5 cells, effector-to-target ratio 10:1 [2]: 98.5%
- cytotoxicity on MEC-1-CD5-Luc cells, effector-to-target ratio 1:1 [2]: 97.7%
- cytotoxicity on MEC-1-CD5-Luc cells, effector-to-target ratio 2:1 [2]: 98.2%
- cytotoxicity on SUP-T1-Luc cells, effector-target ratio 1:1 [2]: 56.9%
- cytotoxicity on SUP-T1-Luc cells, effector-target ratio 2:1 [2]: 91%
- EC50 [3]: 2.07 nM
- EC50 [4]: 3.82 nM
- EC50 [5]: 1.18 nM
- EC50 [6]: 1.22 nM

B3: FHVH2 (#60 IgG) (Fc fusion)
chain: QVQLVESGGGLVQPGGSLRLSCAASGFTFSSYEMNWVRQAPGKGLEWVSYISSSGSTIYYADSVKGRFTISRDNAKNSLYLQMNSLRAEDTAVYYCARVAQREGDVWGKGTTVTVSS
notes: also called anti-CD5 IgG; not shown: human IgG4 Fc
- Kd [1]: 8.32 nM
- koff [1]: 0.000212 s⁻¹
- kon [1]: 25500 M⁻¹ s⁻¹

B4: FHVH1 (#42 IgG) (Fc fusion)
chain: EVQLLESGGGLVQPGGSLRLSCAASGFTFSHSAMGWVRQAPGKGLEWVSSIYARGGYTYYADSVKGRFTISRDNSKNTLYLQMNSLRAEDTAVYYCARGYHLEYMVSQDVWGQGTLVTVSS
notes: also called #42 clone; anti-CD5 IgG; not shown: human IgG4 Fc
- Kd [1]: 2.9 nM
- koff [1]: 0.000139 s⁻¹
- kon [1]: 48000 M⁻¹ s⁻¹

B5: FHVH3VH1 (#61-42 IgG) (Fc fusion)
chain: QVQLVQSGAEVKKPGSSVKVSCKASGGTFSNYAISWVRQAPGQGLEWMGWISAYNGDTKYAQRLQGRVTMTTDTSTSTAYMELRNLRSDDTAVYYCARYESMSGQDIWGQGTLVTVSSGGGGSGGGGSGGGGSEVQLLESGGGLVQPGGSLRLSCAASGFTFSHSAMGWVRQAPGKGLEWVSSIYARGGYTYYADSVKGRFTISRDNSKNTLYLQMNSLRAEDTAVYYCARGYHLEYMVSQDVWGQGTLVTVSS
notes: as for B3
- Kd [1]: 1.67 nM
- koff [1]: 0.000189 s⁻¹
- kon [1]: 113000 M⁻¹ s⁻¹

B6: CT125A tandem single-domain antibody rabbit FC fusion protein RD125 61-42 rFc (Fc fusion)
chain: QVQLVQSGAEVKKPGSSVKVSCKASGGTFSNYAISWVRQAPGQGLEWMGWISAYNGDTKYAQRLQGRVTMTTDTSTSTAYMELRNLRSDDTAVYYCARYESMSGQDIWGQGTLVTVSSGGGGSGGGGSGGGGSEVQLLESGGGLVQPGGSLRLSCAASGFTFSHSAMGWVRQAPGKGLEWVSSIYARGGYTYYADSVKGRFTISRDNSKNTLYLQMNSLRAEDTAVYYCARGYHLEYMVSQDVWGQGTLVTVSS
notes: also called CD5 tandem single-domain antibody rabbit Fc fusion protein; not shown: rabbit Fc
- EC50 [7]: 2.72 nM
- EC50 [8]: 3.04 nM
- EC50 [9]: 0.56 nM
- EC50 [10]: 0.64 nM
- EC50 [11]: 2.54 nM
- EC50 [12]: 4.75 nM
- EC50 [13]: 3.39 nM
- EC50 [14]: 0.92 nM
- EC50 [15]: 0.72 nM
- EC50 [16]: 1.2 nM
- EC50 [17]: 1.3 nM
- EC50 [18]: 1.14 nM
- EC50 [19]: 0.64 nM
- EC50 [20]: 4.58 nM
- EC50 [21]: 4.02 nM
- EC50 [22]: 2.99 nM

B7: FHVH4 (#62 IgG) (Fc fusion)
chain: QVQLVQSGAEVKKPGESLRISCKASGYSFSNHWIGWVRQKPGKGLEWMGSVYPGDSDTRYSPSFQGHVTVSADKSMNTAYLQWSSLKTSDTAMYYCARGGTIDGDYGGRQDFWGQGTMVTVSS
notes: as for B3
- Kd [1]: 27.4 nM
- koff [1]: 0.000309 s⁻¹
- kon [1]: 12500 M⁻¹ s⁻¹
